Measurements reported in publication PMC11293385 (Genes & Development, 2024).

B3: His-tagged IκBζ(404–718) (domain or fragment, human, UniProt Q9BYH8 404-718, looked up)
chain: MGNPMNTTQLGKSLFQWQVEQEESKLANISQDQFLSKDADGDTFLHIAVAQGRRALSYVLARKMNALHMLDIKEHNGQSAFQVAVAANQHLIVQDLVNIGAQVNTTDCWGRTPLHVCAEKGHSQVLQAIQKGAVGSNQFVDLEATNYDGLTPLHCAVIAHNAVVHELQRNQQPHSPEVQELLLKNKSLVDTIKCLIQMGAAVEAKDRKSGRTALHLAAEEANLELIRLFLELPSCLSFVNAKAYNGNTALHVAASLQYRLTQLDAVRLLMRKGADPSTRNLENEQPVHLVPDGPVGEQIRRILKGKSIQQRAPPY

Key:
His-tagged IκBζ(404–718) = target: B3; test: SPR
[1] = target: p50(1–376):RelA(1–325) heterodimer (murine, UniProt P25799 1-376; Q04207 1-325); test: native gel or EMSA
Chain of p50(1–376):RelA(1–325) heterodimer (Q04207 1-325, one chain of several): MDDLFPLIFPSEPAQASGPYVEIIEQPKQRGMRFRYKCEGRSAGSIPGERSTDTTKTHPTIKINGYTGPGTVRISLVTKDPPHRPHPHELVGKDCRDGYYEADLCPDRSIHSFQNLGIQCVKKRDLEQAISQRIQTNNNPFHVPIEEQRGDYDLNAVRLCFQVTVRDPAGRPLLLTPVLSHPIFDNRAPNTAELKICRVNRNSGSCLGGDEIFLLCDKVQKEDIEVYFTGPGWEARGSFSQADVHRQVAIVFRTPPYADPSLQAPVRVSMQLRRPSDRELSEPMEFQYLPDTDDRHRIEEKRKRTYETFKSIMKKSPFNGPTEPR

p50(1–376) homodimer = target: T1, p50(1–376) homodimer (murine, UniProt P25799 1-376); test: native gel or EMSA
T1 sequence (looked up): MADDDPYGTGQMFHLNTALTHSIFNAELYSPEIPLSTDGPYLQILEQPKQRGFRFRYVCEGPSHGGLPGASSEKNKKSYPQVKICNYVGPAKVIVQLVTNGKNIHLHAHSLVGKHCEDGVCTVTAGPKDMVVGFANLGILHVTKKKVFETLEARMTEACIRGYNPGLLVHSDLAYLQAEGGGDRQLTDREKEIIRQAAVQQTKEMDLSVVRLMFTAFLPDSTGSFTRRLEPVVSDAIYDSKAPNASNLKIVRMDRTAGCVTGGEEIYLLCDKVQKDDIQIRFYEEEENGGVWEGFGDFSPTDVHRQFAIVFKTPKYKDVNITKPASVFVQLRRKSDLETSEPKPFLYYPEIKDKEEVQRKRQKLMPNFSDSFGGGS

p50(1–435) homodimer = target: T2, p50(1–435) homodimer (murine, UniProt P25799 1-435); test: SPR
T2 sequence (looked up): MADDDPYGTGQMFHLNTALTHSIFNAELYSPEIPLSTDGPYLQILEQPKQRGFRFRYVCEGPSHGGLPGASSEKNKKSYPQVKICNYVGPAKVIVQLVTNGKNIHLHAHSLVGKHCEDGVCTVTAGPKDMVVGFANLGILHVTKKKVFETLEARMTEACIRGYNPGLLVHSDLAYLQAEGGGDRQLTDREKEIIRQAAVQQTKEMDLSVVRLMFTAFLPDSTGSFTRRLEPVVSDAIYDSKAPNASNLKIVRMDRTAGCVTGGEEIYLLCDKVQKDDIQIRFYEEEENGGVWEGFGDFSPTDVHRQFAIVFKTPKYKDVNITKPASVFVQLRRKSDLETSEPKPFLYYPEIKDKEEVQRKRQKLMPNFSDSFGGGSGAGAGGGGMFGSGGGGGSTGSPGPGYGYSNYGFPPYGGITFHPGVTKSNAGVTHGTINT

p50(39–363) homodimer = target: T3, p50(39–363) homodimer (murine, UniProt P25799 39-363); test: SPR
T3 sequence (looked up): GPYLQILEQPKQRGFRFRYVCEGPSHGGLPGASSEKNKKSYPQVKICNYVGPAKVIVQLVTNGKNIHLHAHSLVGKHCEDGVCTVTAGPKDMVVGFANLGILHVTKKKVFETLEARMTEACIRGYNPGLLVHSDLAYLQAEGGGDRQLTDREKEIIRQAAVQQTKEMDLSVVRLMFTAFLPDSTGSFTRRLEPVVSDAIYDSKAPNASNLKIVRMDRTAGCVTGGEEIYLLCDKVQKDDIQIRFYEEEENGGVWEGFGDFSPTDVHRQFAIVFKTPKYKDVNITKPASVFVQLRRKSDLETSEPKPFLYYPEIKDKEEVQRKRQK

[2] = target: NF-kB p50;GST-IkBzeta ankyrin repeat domain (Mus musculus;Homo sapiens, UniProt P25799;Q9BYH8 1-376;404-718, |); test: EMSA supershift
crystal structure = target: the molecule itself; test: crystal structure

B1: RelA(191–290)–p50(350–376) chimeric fusion protein (other, murine, UniProt Q04207 191-290, looked up)
chain: TAELKICRVNRNSGSCLGGDEIFLLCDKVQKEDIEVYFTGPGWEARGSFSQADVHRQVAIVFRTPPYADPSLQAPVRVSMQLRRPSDRELSEPMEFQYLPEIKDKEEVQRKRQKLMPNFSDSFGGGS
His-tagged IκBζ(404–718)
  Kd: 615 pM

B2: GST-IκBζ(404–718) (domain or fragment, human, UniProt Q9BYH8 404-718, looked up)
chain: MGNPMNTTQLGKSLFQWQVEQEESKLANISQDQFLSKDADGDTFLHIAVAQGRRALSYVLARKMNALHMLDIKEHNGQSAFQVAVAANQHLIVQDLVNIGAQVNTTDCWGRTPLHVCAEKGHSQVLQAIQKGAVGSNQFVDLEATNYDGLTPLHCAVIAHNAVVHELQRNQQPHSPEVQELLLKNKSLVDTIKCLIQMGAAVEAKDRKSGRTALHLAAEEANLELIRLFLELPSCLSFVNAKAYNGNTALHVAASLQYRLTQLDAVRLLMRKGADPSTRNLENEQPVHLVPDGPVGEQIRRILKGKSIQQRAPPY
[1]
  binding result: binds
p50(1–376) homodimer
  binding result: binds

## B3
p50(1–435) homodimer
  binding result: binds
p50(39–363) homodimer
  binding result: binds

B4: human IL-6 kB DNA probe (dsDNA)
DNA 1: AGATTTATCAAATGTGGGATTTTCCCATGAGTCTCAATATT
DNA 2: AATATTGAGACTCATGGGAAAATCCCACATTTGATAAATCT
[2]
  binding result: binds

B5: murine p50 dimerization domain homodimer (residues 245–376) (domain or fragment, UniProt P25799 245-376, looked up)
chain: ASNLKIVRMDRTAGCVTGGEEIYLLCDKVQKDDIQIRFYEEEENGGVWEGFGDFSPTDVHRQFAIVFKTPKYKDVNITKPASVFVQLRRKSDLETSEPKPFLYYPEIKDKEEVQRKRQKLMPNFSDSFGGGS
His-tagged IκBζ(404–718)
  Kd: 91.2 pM
Crystal structure
  binding result: binds
